Tests used:
B41 SOSIP.664 v4.2 = molecular target: T1, B41 SOSIP.664 v4.2 (HIV-1 (clade B B41)); assay: cryo-EM structure; details: both partners purified
T1 construct: copies: 3 + 3

[1] = molecular target: T2, sCD4 D1D2 (domains 1 and 2; residues 1-186 of mature CD4); assay: cryo-EM structure; details: both partners purified
T2 construct: also called soluble CD4; source: HEK293-6E, transient transfection, purified (Ni-NTA, SEC)

B1: 21c Fab (Fab, V domains shown)
VH: QVQVVQSGAEVRKPGASVKVSCKVSGFTLTGLSIHWVRQAPGKGLEWMGGFGPEENEIIYAQKFQGRVSMTEDTSTNTAYMELSSLRSEDTAVYYCATGGNYYNLWTGYYPLAYWGQGTLVTVSS
VL: QSVLTQPPSVSAAPGQKVTISCSGSSSNIGKNYVSWYQQLPGAAPKLLIFDDTQRPSGIPDRFSGSKSGTSATLAITGLQTGDEADYYCGTWDSSLSTGQLFGGGTKLTVL
notes: also called CD4i antibody 21c
B41 SOSIP.664 v4.2
  stoichiometry N: 3 copies per Env trimer
[1]
  binding result: binds

Reference: article PMC6185872 (Cell Host & Microbe, 2018)
